Data from paper PMC10272136, “Molecular mechanisms of Holliday junction branch migration catalyzed by an asymmetric RuvB hexamer” (Nature Communications, 2022).
Where “and” joins values, the source holds several entries; their conditions need not be identical. Identical values can stand only once.

What was measured:
RuvB = biological target: T1, RuvB (Thermus thermophilus, UniProt Q5SL87 1-324); experiment: gel filtration; 2 mM ATPgS, 10 mM MgCl2; DNA:RuvB monomer 1:6; 20 mM Tris-HCl pH 7.5, 10 mM MgCl2, 1 mM DTT, 2 mM ATPgS, 30 min at 37 C; gel filtration in 20 mM Tris-HCl, 150 mM NaCl; conditions: protein: recombinant; tags: N-terminal His tag (pET-28a, NdeI/SalI); chain copies: 6; four-way junction of 4 strands, 1 copy each
T1 sequence: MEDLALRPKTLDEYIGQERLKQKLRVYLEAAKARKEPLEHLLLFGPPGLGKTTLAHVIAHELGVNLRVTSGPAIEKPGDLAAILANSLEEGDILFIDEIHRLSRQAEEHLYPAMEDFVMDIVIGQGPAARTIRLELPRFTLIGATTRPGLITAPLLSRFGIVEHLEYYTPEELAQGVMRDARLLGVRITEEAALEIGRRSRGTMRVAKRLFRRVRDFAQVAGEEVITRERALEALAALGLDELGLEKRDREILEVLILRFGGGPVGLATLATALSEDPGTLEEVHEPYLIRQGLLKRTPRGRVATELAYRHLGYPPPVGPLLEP

RuvA = biological target: T2, RuvA (Thermus thermophilus, UniProt Q9F1Q3 1-191); experiment: cryo-EM structure; from RuvA-RuvB-HJ sample; RuvA tetramer binds HJ core; 20 mM Tris-HCl pH 7.5, 10 mM MgCl2, 1 mM DTT, 2 mM ATPgS, 30 min at 37 C; gel filtration in 20 mM Tris-HCl, 150 mM NaCl; conditions: protein: recombinant; tags: N-terminal His tag (pET-28a, NdeI/XhoI); chain copies: 4; four-way junction of 4 strands, 1 copy each
T2 sequence: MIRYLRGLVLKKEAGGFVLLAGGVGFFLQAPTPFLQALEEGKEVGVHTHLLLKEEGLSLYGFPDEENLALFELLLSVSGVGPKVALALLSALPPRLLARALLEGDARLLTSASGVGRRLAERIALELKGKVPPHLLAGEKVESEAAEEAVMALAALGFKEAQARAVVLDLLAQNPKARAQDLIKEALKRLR

[1] = biological target: the molecule itself; experiment: cryo-EM structure; sample of RuvA, RuvB and HJ DNA (6:4:1 RuvB:RuvA:HJ DNA); only a RuvA-HJ DNA structure was obtained; C4 symmetry, 4.3 Å
[2] = biological target: the molecule itself; experiment: cryo-EM structure; RuvB mixed with annealed HJ DNA at 1:6 (DNA/RuvB monomer) in 20 mM Tris-HCl pH 7.5, 10 mM MgCl2, 1 mM DTT, 2 mM ATP-γ-S, 30 min at 37 °C; complex purified by gel filtration; two maps (hexamer 2.97 Å, C1; dodecamer 3.2 Å, C2)

B1: HJ DNA (HJ1-HJ4) (structured_DNA)
DNA 1: AGAATCTGCCGAGAGACCGAGCAGAATTCTATGTGTTTACCAAGCGCTG
DNA 2: CAGCGCTTGGTAAACACATAGAATTCTGCTCGGTCTGAGCCGTCTAAGA
DNA 3: TCTTAGACGGCTCACTGGCTGTGGGATCCGAGCTGTCTAGAGACATCGA
DNA 4: TCGATGTCTCTAGACAGCTCGGATCCCACAGCCAGTCTCGGCAGATTCT
binding result (RuvB): binds
binding result (RuvA): binds

B2: Thermus thermophilus RuvA (natural protein, UniProt Q9F1Q3 1-191, looked up)
chain: MIRYLRGLVLKKEAGGFVLLAGGVGFFLQAPTPFLQALEEGKEVGVHTHLLLKEEGLSLYGFPDEENLALFELLLSVSGVGPKVALALLSALPPRLLARALLEGDARLLTSASGVGRRLAERIALELKGKVPPHLLAGEKVESEAAEEAVMALAALGFKEAQARAVVLDLLAQNPKARAQDLIKEALKRLR
notes: source: E. coli BL21(DE3) RipL, purified (heat step at 55 °C, Ni-NTA, gel filtration)
stoichiometry N [1]: 4

B3: Thermus thermophilus RuvB (enzyme, UniProt Q5SL87 1-324, looked up)
chain: MEDLALRPKTLDEYIGQERLKQKLRVYLEAAKARKEPLEHLLLFGPPGLGKTTLAHVIAHELGVNLRVTSGPAIEKPGDLAAILANSLEEGDILFIDEIHRLSRQAEEHLYPAMEDFVMDIVIGQGPAARTIRLELPRFTLIGATTRPGLITAPLLSRFGIVEHLEYYTPEELAQGVMRDARLLGVRITEEAALEIGRRSRGTMRVAKRLFRRVRDFAQVAGEEVITRERALEALAALGLDELGLEKRDREILEVLILRFGGGPVGLATLATALSEDPGTLEEVHEPYLIRQGLLKRTPRGRVATELAYRHLGYPPPVGPLLEP
notes: RuvB, Holliday junction branch migration ATPase (AAA+), Thermus thermophilus; printed MW 35,973; Purified RuvB carried endogenous ADP (native mass spectrometry); It forms the hexamer and dodecamer only in the sample with DNA and ATPγS; also called T. thermophilus RuvB; RuvB protomer; source: E. coli BL21(DE3) RipL, purified (heat step at 55 °C, Ni-NTA, Superdex 200 gel filtration)
stoichiometry N [2]: 6 and 12
